The record followed here is the nanobody polyreactivity screen of Harvey et al. (2022).

A short description of this data set: yeast display, Sf9 membrane polyspecificity reagent, FACS + sequencing; frameworks hold sequencing errors. An outline of the steps: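 In a synthetic yeast display library (Saccharomyces cerevisiae BJ5465), nanobody expression was induced with galactose for 36–48 hours. FACS gates were set low and high (top ~1%) using anti-HA fluorescence for expression and streptavidin fluorescence for binding of the Sf9 membrane reagent. Each polyreactivity label is drawn from the gate of origin.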
“QVQLVESRAGLVQAGGSLRLSCAASGSTFGYYTMGWYRQAPGKERELVAAITWSGGSSYYADSVKGRFTISRDNAKKTVYLEMNSLKAEDTAVYFGAADDYWTPFGYWGQGTQVTVSA”: the “polyreactivity (PSR sort gate)” value was “low polyreactivity”.
On to “QVQLVESGGGLVQAGGSRRLSCAASGRTFVGTAMGWSRQAPGKERELVAAMSGDGSTNYADSVKGRFTISRDNAKNTVYLQMNSLKPEDTAVYYCAADGVTRYYQRTYTRYGYWGQGTQVTVSS”, for which the “polyreactivity (PSR sort gate)” value was “low polyreactivity”.
In the case of “QVQLVESGGGKVQAGGSLRLICAASGSTFSSYAMGWYRQAPGKERELVAGISRGGSSTDYADSVKGRFTISRDNAKNTVYLQMNSLKPEDPAVYYCNAKVWWSFNGLEYDYWGQGTQVTVSS”, the “polyreactivity (PSR sort gate)” value is listed as “low polyreactivity”.
As for “QVQLVESGGGLVQAGGSLRLSCAASGTTFYNYAMGWYRQAPGQERELVAAISKTGGSTYYADSVKGRFTISRDNAKNTVYLQMNSLKPEDTAVYYCNAVALYPYTTYHYWGQGTQVTVSS”, the entry is “high polyreactivity”.
With “QVQLVESGGGLVQAGGSLRLSCAASGSTLSVNAMGWYRQAPGKERELVAAIDFDGGDTYYADSVKGRFTISRDNAKNTVYLQMNSLKPEDTAVYYCAADIGGQYDYLADDYWGQGTQVTVSS” the entry was “low polyreactivity”.
As to “QVQLVESGGGLVQAGGSLRLSCAASGRIFRPYTMGWYRQAPGKERELVAANSWRGGSTYYADSVKVRFTISLDNAKNTVYLLINSLKPEATAVYYCATYVKVIRTAGTRPKMGYWGQVTQVTVSS”, the “polyreactivity (PSR sort gate)” value is listed as “high polyreactivity”.
As for “QVQLVESGGGLVQAGGSLRLSCAASGRTFAYNAMGWYIQAPGKERELVASITSGGSTNYADSVKGRFTISRDNAKNTVYLQMNSLKPEDTAVYYCNKDGKYHRVLYDYWGQGTQVTVSS”, the “polyreactivity (PSR sort gate)” value is on record as “low polyreactivity”.
As to “QVQLVESGGGLVQAGGSLRLSCAASGSIFDVNAMGWYRQAPWKERELVAAISDSGGSTYYADSVKGRFTISRDNANNTVYLQMNSLKPEDTAVYYCNADWSWYNYYDFDYWGQGTQVTVSS”, the “polyreactivity (PSR sort gate)” value is recorded as “low polyreactivity”.
For the sequence “QVQLVESGGGLVQAGGSLRLSCAASGRISIIYAMGWYRQAPGKERELVARISGSGGSTNYADSVKGRFTISRDNAKNTVYLQMISLKPEDTAVYYCAAVPWRIHKYYYWGQGTQVTVSS”, the “polyreactivity (PSR sort gate)” value is on record as “high polyreactivity”.
As for “QVQLVESGGGLVQAGGSLRLSCAASGSTFPPYGMGWYRQAPGKERELVASITSGGSTNYADSVKGRFTISRDNAKNTVYLQMNSLKPEDTAVYYCNADLHSHYDYWGQGTQVTVSS”, the entry is “low polyreactivity”.
With “QVQLVESGGGLVQAGGRLRLSCAASGFTFYYYAMGWYRQAPGKEREMVAAISRSGGSTYYADSVKGRFTISRDNAKNTVYLQMNSLKPEDTAVYYCNTLRRTWFQENDYWGQGTQVTVSS”, the “polyreactivity (PSR sort gate)” value is “high polyreactivity”.
Consider “QVQLQESGGGLVQAGGSLRLSCAASGYISSWYPMGWYRQAPGKEREFVATIAPGATTYYADSVKGRFTISRDYAKNTVYLQMNSLKPEDTAVYYCAAGPLNNDFYSYWGQGTQVTVSS”, for which the “polyreactivity (PSR sort gate)” value is listed as “low polyreactivity”.
Turning to “QVQLVESGGGLVQAGGSLRLSCAASGSIFSSYAMGWYRQAPGKERELVAVITSGDSTNYADSVKGRFTISRDNAKNTVYLQMNSLKPEDTAVYYCNADSYGGSDRYDYWGQGTQVTVSS”, the “polyreactivity (PSR sort gate)” value was “low polyreactivity”.
Turning to “QVQLVESGGGLVQAGGSLRLSCAASGFTFKGYAMGWYRQAPGKERELVAAITRGGSTYYADSVKGRFTISRDNAKNTVYLLMNSLKPEDTAVYYCAARGRGHGTTPNDYWGQGTQVTVSS”, the “polyreactivity (PSR sort gate)” value was “high polyreactivity”.
“QVQLVESGGGLVQAGGSLRLSCAASGFIFRRYTMGWYRQAPGKERELVAAISSRGGSTYYADSVKGRFTISRDNAKNTVYLQMNSLKPEDTAVYYCNAGLGVRRRYDYWGQGTQVTVSS”: the “polyreactivity (PSR sort gate)” value is listed as “high polyreactivity”.
As for “QVQLVESGGGLVQAGGSLRLSCAASGITFGGNAMGWYRQAPGKERELVAAISGRGGRTYYADSVKGRFTISRDTAKNTVYLQMNSLKPEDTAVYYCAGGGRVRYDYWGQGTQVTVSS”, the “polyreactivity (PSR sort gate)” value is “low polyreactivity”.
Take “QVQLVESGGGLVQAGGSLRLSCAASGFTFSRNAMGWYRQAPGKERELVAAIDSGGSTDYADSVKGRFTISRDNAKNTVYLQMNSLKPEDSAVYYCAKASSATRYVQLRQDYDYWGQGTQVTVSS”: the “polyreactivity (PSR sort gate)” value is “low polyreactivity”.
“QVQLVESGGGLVQAGGSLRLSSAASGSTIGVNARGWYRQAPGKERELVAAISSSGSSTYADSVKGRFTISRDNAKNTVYLQMNSLKPEDTAVYYCNKEWYPYKHNYWGQGTQVTVSS”: the “polyreactivity (PSR sort gate)” value is “low polyreactivity”.
As for “QVQLVESGGGLVQAGGSLRLSCAASGFTFRGYAMGWYRQAPGKERELVAAITWSGGSTYYADSVKGRFTISRDNAKYTVYLQMNSLKPEDTAVYYCNAYYASGYRQYDYWGQGTQVTVSS”, the “polyreactivity (PSR sort gate)” value is reported as “high polyreactivity”.
With “QVQLVDSGGGLVQAGGSLRLSCAASGSIFVNNTMGWYRQAPGKERELVAAISSSGGSTYYADSVKGRFTISRDNAKNTVYLQMNSLKPEDTAVYYCAAVNGYQYPQYYYNGYDYWGQGTQVTVSS”, the “polyreactivity (PSR sort gate)” value is given as “low polyreactivity”.
In the case of “QVQLVETGGGLVQAGGSLRLSSAGSGSISYAYAMGWYRQARGKEREFVAAITDSGGSTYYADSVKGRFTISRDNAKNTVYSQMNSLKPEDTAVYYCAAGGPWWSGYYYWGQGTQVTVSS”, the “polyreactivity (PSR sort gate)” value is reported as “low polyreactivity”.
As for “QVQLVESGGGLVQEGGSLRLNCAASGRTFFRNTMGWYRQAPRKDSELFATISSSGGSTYYADSVKGLFTISRDTAKNTVYLQMNSLKPEDTAVYYCAAAPSKWYYGYGYWGQGTQVTVSS”, the “polyreactivity (PSR sort gate)” value is listed as “high polyreactivity”.
Consider “QVQLVESGGGLVQAGGSLRLSCAASVRIFAKYAMGWYRQAPGKERELVAAIRWRGGNTYYADSVKGRFTISRDNAKNTVYLQMNSLKPEDTAVYYCAAGTWLGRGYIGQVESWGQGTQVTVSS”, for which the “polyreactivity (PSR sort gate)” value was “high polyreactivity”.
Turning to “QVQLVESGGGLVQAGGSLRLSCAASGRTFVGYAMGWYRQAPGKERELVAAISGSGVRTYYADSVKGRFTISRDNAKNTVYLQMNSLKPEDTAVYYCAVRQGWYNFRYDYWGQGTQVTVSS”, the “polyreactivity (PSR sort gate)” value is “high polyreactivity”.
“QVQLVESGGGLVQAGGSLRLSCAASGSIFRRYAMGWYRQAPGKERELVAAISSNGGSTYYADSVKGRFTISRDNAKNTVYLQMNSLKPEDTAVYYCNAPPLYRDEYWGQGTQVTVSS”: the “polyreactivity (PSR sort gate)” value was “high polyreactivity”.
With “QVQLVESGGGLVQAGGSLRLSCAASGRIFVVYTMRWYRQAPGNERELVASIRGSGDSTNYADSVKGRFTISRDNAKNTVYLQMNSLKPEDTAVYYCAADLPWSRRYSYRYGYWGQGTQVTVSS” the entry was “low polyreactivity”.
In the case of “QVQLVESGGGLVQAGGSLRLSCAASGITLYRYAMGWYRHAPGKERELVAAISWSGGSTYYADSVKGRFTISRDNAKNTVYLQMNSLKPEDTAVYYCAADDYKDEHDYWGQGTQVTVSS”, the “polyreactivity (PSR sort gate)” value was “high polyreactivity”.
For the sequence “QVQLVESAGGLVQAGGSLRLSCAASGLIFRFNAMGWYRQAPGKERELVAAITRAGSTYYADSVKGRFTISRDNAKKTVYLQMNSLKPEDTAVYYCAAGQYRLPQRGYGYWGQGTQVTVSS”, the “polyreactivity (PSR sort gate)” value is “high polyreactivity”.
Regarding “QVQLVESGGGLVQAGGSLRLSCAASGTFTVNTMGWYRQAPGKVSELVAAISTGDTTTYADSVKGRFTISRDNAKNTVYFQLNSLKPEDTAVYYCNVDIGVYAYESDYWGQGTQVTVSS”, the “polyreactivity (PSR sort gate)” value is reported as “low polyreactivity”.
Regarding “QVQLVESGGGLVQAGGSLRLSCASGRIFKKNALGWYRQAPGKERELVAGITISGGRTYYADSVKGRFTISRDNAKNTVYLQMNSLKPEDTAVYYCNAGPDRRVSYYRLLDHWGQGTQVTVSS”, the “polyreactivity (PSR sort gate)” value is given as “low polyreactivity”.
Turning to “QVQLVESGGGLVQAGGSLRLSCAASGSIFWPNAMGWYRQAPGKERELVAAIRRSGGSTYYADSVKGRFTISRDNAKNTVYLQMNSLKPEDTAVYYCAARADLHRRVRNIYYSWGQGTQVTVSS”, the “polyreactivity (PSR sort gate)” value is “low polyreactivity”.
Consider “QVQLVESGGGLVQAGGSLRLSCAASGRIFYRYAMGWDSQAPGKERELVAAISCGGSTYYADSVKGRFTISRDNAKNTVYLQMNSLKPEDSAVYYCAATWGRGTYYLYYYWGQGTQVTVSS”, for which the “polyreactivity (PSR sort gate)” value was “high polyreactivity”.
Consider “QVQLVESGGGLVQAGGSLRLSCAASGRTFNFNAMGWYRQAPGKERELVATITSRGGSTYADSVKGRFTISRDNAKNTVYLQMNSLKPEDTAVYYCNARTPYIRDYQYWRKYDYWGQGTQVTVSS”, for which the “polyreactivity (PSR sort gate)” value is given as “high polyreactivity”.
With “QVQLVESGGGLVQAGVSLRLSCAASGGTFSRNAMGWYRQAPGKERELVAAINSSGVSTSYADSVKGRFTISRDNAKNTVYLQMNSLKPEDTAVYYCAAETSSAEVDYWGQGTQVTVSS” the entry was “low polyreactivity”; with “QVQLVESGRGLVQAGVSLRISCAPSGRIFSGYAMGWYRQAPGKERELVAAITSSSGSTYYADSVKWRFTISRDNAKNTFYLQMISLKPEDTAVYYCAAEYVRLYWYTSDYWGQGTEVTVSS”, “low polyreactivity”; with “QVQLVESGGGLVQAGGSLRLSCAASGRIFVAYTRGWYRQAPGKERELVAAITWNSGSSTYYADSVKGRFTISGDNAKNTVYLQMNSLKPEDTAVYYCAARSAGRYWNYYWGQGTQVTVSS”, “high polyreactivity”.
Regarding “QVQLVESGGGLVQAGGSLRLSCAASGIIFRGYAMGWYRQAPGKERELVAAITYSGDSTYYADSVKGRFTSSRDNAKNTVYLQMNSLKPEESAVYYCNADVVDGGLAYDYWGQGTQVSVSS”, the “polyreactivity (PSR sort gate)” value is on record as “low polyreactivity”.
Consider “QVQLVESGGGLVQAGGSLRLSCAASGSTFYYFALGWYRQAPGKERELVAAISSGGTTNYADSVKGRFTISRDNAKNTVYLQINSLKPEDTAVYYCAARFRRVRFTHYDYWGQGTQVTVSS”, for which the “polyreactivity (PSR sort gate)” value was “high polyreactivity”.
As for “QVQLVESGGGLVQAGGSLRISCAASGRTFRYYGMGWYRQPPAKERVVAAITWSGDTTYYADSVKGRFTISRDNAKNTVYLQMNSLKPEDTAVYYFAAQSWHRYYYWGQGTQVTVSS”, the entry is “high polyreactivity”; as for “QVQLVESGGGLVQAGGSLRLSCAASGRTFPAYAMGWYRQAPGKERELVAAITWSGGRTYYADSVKGRFTISRDNAKNTVYLQMNSLKPEDTAVYYCAAQYRVLWYSYYYWGQGTQVTVSS”, “high polyreactivity”.
Consider “QDQLVESVGGLVQAGGSLRLSCAASGSIFDQNAMGCSRHAPGKESELVAAITRGGSTKYADSVKGRFTISRDNAKNTVYLQMNSLKPEDTAVYYCARTDRRRYQPYEYWGPGTQVTVSS”, for which the “polyreactivity (PSR sort gate)” value is “low polyreactivity”.
